According to patent US20170157188A1:

B1: WRTG18616-encoded anti-mPD-1 scFv, dimeric fraction (scFv, part only; not given: glycine-serine linker, V domains shown)
VH: EVRLLESGGGLVKPEGSLKLSCVASGFTFSDYFMSWVRQAPGKGLEWVAHIYTKSYNYATYYSGSVKGRFTISRDDSRSMVYLQMNNLRTEDTATYYCTRDGSGYPSLDFWGQGTQVTVSS
VL: YELTQPPSASVNVGETVKITCSGDQLPKYFADWFHQRSDQTILQVIYDDNKRPSGIPERISGSSSGTTATLTIRDVRAEDEGDYYCFSGYVDSDSKLYVFGSGTQLTVLHHHHHH
modifications: Dimer of two identical scFv polypeptides (first gel-filtration peak); one copy is given. VH and VL are joined in the real chain by a Gly-Ser linker of undisclosed letters and are given here as two chains.

Columns and labels:
[1] = target: cell-surface mouse PD-1 on EL4 and RMA T lymphoma cells (mouse) (UniProt Q02242); test: flow cytometry competition on EL4 cells against mPD-L1-hFc at 2 µg/ml
[2] = target: mouse PD-1 (coated in the competition ELISA) (mouse) (UniProt Q02242); test: competition ELISA, blocks mouse PD-L1 biot on coated mouse PD-1; dimeric fraction more efficient than monomeric

| Molecule | IC50 [1] [µg/mL] | difference in EC50 against the monomeric scFv [2] [log] |
| --- | --- | --- |
| commercially available anti-mPD-1 antibody J43 (BioXCell) | 1.6 |  |
| B1 |  | 1 |
